Assays:
[1] = molecular target: JO-4 (affinity-enhanced junction opener; self-dimerizing HAdV3-V239D fiber knob) (human adenovirus type 3 (HAdV3)) (UniProt P04501); assay: SPR
crystal structure = molecular target: the molecule itself; assay: crystal structure

Sequence of Recombinant human DSG2 protein (desmoglein 2) (Q14126 50-609): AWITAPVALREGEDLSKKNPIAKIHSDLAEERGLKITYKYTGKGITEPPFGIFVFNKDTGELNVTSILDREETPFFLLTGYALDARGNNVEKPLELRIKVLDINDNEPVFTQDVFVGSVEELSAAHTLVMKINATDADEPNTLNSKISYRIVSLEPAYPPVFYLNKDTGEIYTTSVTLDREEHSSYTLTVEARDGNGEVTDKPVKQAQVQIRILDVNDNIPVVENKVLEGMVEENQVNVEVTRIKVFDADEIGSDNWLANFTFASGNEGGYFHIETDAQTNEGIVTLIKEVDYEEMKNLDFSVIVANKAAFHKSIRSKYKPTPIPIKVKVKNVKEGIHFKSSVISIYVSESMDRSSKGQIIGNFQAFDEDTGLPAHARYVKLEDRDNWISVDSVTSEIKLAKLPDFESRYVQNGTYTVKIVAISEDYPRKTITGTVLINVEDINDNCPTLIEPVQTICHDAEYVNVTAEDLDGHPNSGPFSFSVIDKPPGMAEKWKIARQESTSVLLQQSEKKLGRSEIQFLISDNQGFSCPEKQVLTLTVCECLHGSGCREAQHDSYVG

| Molecule | Kd [1] [nM] | binding result (crystal structure) |
| --- | --- | --- |
| Recombinant human DSG2 protein (desmoglein 2) (from UniProt Q14126 50-609) (receptor) | 1.4 |  |
| HAdV3 fiber knob mutant V239D (nondimerized, trimeric) (domain or fragment, human adenovirus type 3 (HAdV3)) ALKNNTLWTGPKPEANCIIEYGKQNPDSKLTLILVKNGGIVNGYVTLMGASDYVNTLFKNKNVSINVELYFDATGHILPDSSSLKTDLELKYKQTADFSARGFMPSTTAYPFDLPNAGTHNENYIFGQCYYKASDGALFPLEVTVMLNKRLPDSRTSYVMTFLWSLNAGLAPETTQATLITSPFTFSYIREDD |  | binds |
